The record followed here is paper PMC4067574 (Protein expression and purification, 2010).

The term Kd denotes the equilibrium constant for the complex coming apart. A higher Kd goes with weaker binding.

Several values for one entry are separate records, joined by “and”; a condition that tells them apart may be missing. Equal values may be shown once.

The assay concerns the target C3b (UniProt P01024 23-667; P01024 749-1663). The assay can be described thus: SPR. In general terms: SPR reads the build-up and loss of mass on a sensor chip optically.

Sequence of C3b (P01024 23-667, chain 1 of 2): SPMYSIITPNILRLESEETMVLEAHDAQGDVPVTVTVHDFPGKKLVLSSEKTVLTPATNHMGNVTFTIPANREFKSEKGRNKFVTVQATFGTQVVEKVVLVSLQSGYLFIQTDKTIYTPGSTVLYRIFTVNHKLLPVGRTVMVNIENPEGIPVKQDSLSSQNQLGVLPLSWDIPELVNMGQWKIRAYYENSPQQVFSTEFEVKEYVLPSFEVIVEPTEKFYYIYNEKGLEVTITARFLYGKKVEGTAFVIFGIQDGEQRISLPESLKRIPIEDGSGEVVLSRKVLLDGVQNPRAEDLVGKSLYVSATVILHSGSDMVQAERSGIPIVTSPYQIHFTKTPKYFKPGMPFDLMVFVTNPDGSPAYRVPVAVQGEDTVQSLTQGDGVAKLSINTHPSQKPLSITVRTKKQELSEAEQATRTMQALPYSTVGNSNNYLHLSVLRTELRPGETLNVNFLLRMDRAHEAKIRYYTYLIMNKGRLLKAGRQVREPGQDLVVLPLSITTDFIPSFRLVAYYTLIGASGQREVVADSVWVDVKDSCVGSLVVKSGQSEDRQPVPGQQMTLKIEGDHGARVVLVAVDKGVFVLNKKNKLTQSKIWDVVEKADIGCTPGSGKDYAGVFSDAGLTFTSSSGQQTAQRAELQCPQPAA
Sequence of C3b (P01024 749-1663, chain 2 of 2): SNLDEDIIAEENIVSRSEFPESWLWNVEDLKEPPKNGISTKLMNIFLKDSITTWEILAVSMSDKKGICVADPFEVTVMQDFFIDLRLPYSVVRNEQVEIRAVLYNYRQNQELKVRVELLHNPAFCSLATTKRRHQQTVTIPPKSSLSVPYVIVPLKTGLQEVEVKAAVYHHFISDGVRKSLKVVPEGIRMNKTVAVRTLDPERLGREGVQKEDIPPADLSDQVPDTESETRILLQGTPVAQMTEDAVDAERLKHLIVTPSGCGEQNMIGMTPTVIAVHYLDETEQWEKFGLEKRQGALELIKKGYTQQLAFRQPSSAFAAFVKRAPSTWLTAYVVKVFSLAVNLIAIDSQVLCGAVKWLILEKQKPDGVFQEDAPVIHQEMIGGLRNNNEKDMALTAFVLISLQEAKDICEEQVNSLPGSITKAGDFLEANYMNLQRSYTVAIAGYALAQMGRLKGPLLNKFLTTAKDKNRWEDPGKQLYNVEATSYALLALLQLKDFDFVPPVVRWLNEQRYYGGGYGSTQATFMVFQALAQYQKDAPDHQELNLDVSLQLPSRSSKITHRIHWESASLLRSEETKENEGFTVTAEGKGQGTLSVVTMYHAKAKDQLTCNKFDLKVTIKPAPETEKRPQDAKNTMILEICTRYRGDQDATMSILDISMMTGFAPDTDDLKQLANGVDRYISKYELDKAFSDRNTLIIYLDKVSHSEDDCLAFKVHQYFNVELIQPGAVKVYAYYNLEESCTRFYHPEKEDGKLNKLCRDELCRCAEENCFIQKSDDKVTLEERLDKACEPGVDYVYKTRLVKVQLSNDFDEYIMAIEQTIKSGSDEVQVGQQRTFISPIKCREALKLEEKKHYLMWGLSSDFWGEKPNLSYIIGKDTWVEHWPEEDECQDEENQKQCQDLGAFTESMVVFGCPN

B1: recombinant human complement factor H, V62,Y402 variant (rFH), Endo Hf-deglycosylated (natural protein, UniProt P08603 19-1231, looked up)
chain: EDCNELPPRRNTEILTGSWSDQTYPEGTQAIYKCRPGYRSLGNVIMVCRKGEWVALNPLRKCQKRPCGHPGDTPFGTFTLTGGNVFEYGVKAVYTCNEGYQLLGEINYRECDTDGWTNDIPICEVVKCLPVTAPENGKIVSSAMEPDREYHFGQAVRFVCNSGYKIEGDEEMHCSDDGFWSKEKPKCVEISCKSPDVINGSPISQKIIYKENERFQYKCNMGYEYSERGDAVCTESGWRPLPSCEEKSCDNPYIPNGDYSPLRIKHRTGDEITYQCRNGFYPATRGNTAKCTSTGWIPAPRCTLKPCDYPDIKHGGLYHENMRRPYFPVAVGKYYSYYCDEHFETPSGSYWDHIHCTQDGWSPAVPCLRKCYFPYLENGYNQNYGRKFVQGKSIDVACHPGYALPKAQTTVTCMENGWSPTPRCIRVKTCSKSSIDIENGFISESQYTYALKEKAKYQCKLGYVTADGETSGSITCGKDGWSAQPTCIKSCDIPVFMNARTKNDFTWFKLNDTLDYECHDGYESNTGSTTGSIVCGYNGWSDLPICYERECELPKIDVHLVPDRKKDQYKVGEVLKFSCKPGFTIVGPNSVQCYHFGLSPDLPICKEQVQSCGPPPELLNGNVKEKTKEEYGHSEVVEYYCNPRFLMKGPNKIQCVDGEWTTLPVCIVEESTCGDIPELEHGWAQLSSPPYYYGDSVEFNCSESFTMIGHRSITCIHGVWTQLPQCVAIDKLKKCKSSNLIILEEHLKNKKEFDHNSNIRYRCRGKEGWIHTVCINGRWDPEVNCSMAQIQLCPPPPQIPNSHNMTTTLNYRDGEKVSVLCQENYLIQEGEEITCKDGRWQSIPLCVEKIPCSQPPQIEHGTINSSRSSQESYAHGTKLSYTCEGGFRISEENETTCYMGKWSSPPQCEGLPCKSPPEISHGVVAHMSDSYQYGEEVTYKCFEGFGIDGPAIAKCLGEKWSHPPSCIKTDCLSLPSFENAIPMGEKKDVYKAGEQVTYTCATYYKMDGASNVTCINSRWTGRPTCRDTSCVNPPTVQNAYIVSRQMSKYPSGERVRYQCRSPYEMFGDEEVMCLNGNWTEPPQCKDSTGKCGPPPPIDNGDITSFPLSVYAPASSVEYQCQNLYQLEGNKRITCRNGQWSEPPKCLHPCVISREIMENYNIALRWTAKQKLYSRTGESVEFVCKRGYRLSSRSHTLRTTCWDGKLEYPTCAKR
modifications: eight residual N-acetylglucosamine moieties after endoglycosidase H (Endo Hf) digestion of the N-linked glycans
Take B1: the equilibrium dissociation constant (Kd) was 1.5 µM and 1.4 µM.

B2: plasma-purified human complement factor H (reference FH) (natural protein, UniProt P08603 19-1231, looked up)
chain: EDCNELPPRRNTEILTGSWSDQTYPEGTQAIYKCRPGYRSLGNVIMVCRKGEWVALNPLRKCQKRPCGHPGDTPFGTFTLTGGNVFEYGVKAVYTCNEGYQLLGEINYRECDTDGWTNDIPICEVVKCLPVTAPENGKIVSSAMEPDREYHFGQAVRFVCNSGYKIEGDEEMHCSDDGFWSKEKPKCVEISCKSPDVINGSPISQKIIYKENERFQYKCNMGYEYSERGDAVCTESGWRPLPSCEEKSCDNPYIPNGDYSPLRIKHRTGDEITYQCRNGFYPATRGNTAKCTSTGWIPAPRCTLKPCDYPDIKHGGLYHENMRRPYFPVAVGKYYSYYCDEHFETPSGSYWDHIHCTQDGWSPAVPCLRKCYFPYLENGYNQNYGRKFVQGKSIDVACHPGYALPKAQTTVTCMENGWSPTPRCIRVKTCSKSSIDIENGFISESQYTYALKEKAKYQCKLGYVTADGETSGSITCGKDGWSAQPTCIKSCDIPVFMNARTKNDFTWFKLNDTLDYECHDGYESNTGSTTGSIVCGYNGWSDLPICYERECELPKIDVHLVPDRKKDQYKVGEVLKFSCKPGFTIVGPNSVQCYHFGLSPDLPICKEQVQSCGPPPELLNGNVKEKTKEEYGHSEVVEYYCNPRFLMKGPNKIQCVDGEWTTLPVCIVEESTCGDIPELEHGWAQLSSPPYYYGDSVEFNCSESFTMIGHRSITCIHGVWTQLPQCVAIDKLKKCKSSNLIILEEHLKNKKEFDHNSNIRYRCRGKEGWIHTVCINGRWDPEVNCSMAQIQLCPPPPQIPNSHNMTTTLNYRDGEKVSVLCQENYLIQEGEEITCKDGRWQSIPLCVEKIPCSQPPQIEHGTINSSRSSQESYAHGTKLSYTCEGGFRISEENETTCYMGKWSSPPQCEGLPCKSPPEISHGVVAHMSDSYQYGEEVTYKCFEGFGIDGPAIAKCLGEKWSHPPSCIKTDCLSLPSFENAIPMGEKKDVYKAGEQVTYTCATYYKMDGASNVTCINSRWTGRPTCRDTSCVNPPTVQNAYIVSRQMSKYPSGERVRYQCRSPYEMFGDEEVMCLNGNWTEPPQCKDSTGKCGPPPPIDNGDITSFPLSVYAPASSVEYQCQNLYQLEGNKRITCRNGQWSEPPKCLHPCVISREIMENYNIALRWTAKQKLYSRTGESVEFVCKRGYRLSSRSHTLRTTCWDGKLEYPTCAKR
modifications: eight N-glycans (native protein)
For the molecule B2, binding was characterised by a dissociation constant (Kd) of 2.9 µM.
